Paper PMC8433531 (Proceedings of the National Academy of Sciences of the …, 2021)

B1: Lactoferrin (protein, UniProt P24627 20-708, looked up)
Lactotransferrin: APRKNVRWCTISQPEWFKCRRWQWRMKKLGAPSITCVRRAFALECIRAIAEKKADAVTLDGGMVFEAGRDPYKLRPVAAEIYGTKESPQTHYYAVAVVKKGSNFQLDQLQGRKSCHTGLGRSAGWIIPMGILRPYLSWTESLEPLQGAVAKFFSASCVPCIDRQAYPNLCQLCKGEGENQCACSSREPYFGYSGAFKCLQDGAGDVAFVKETTVFENLPEKADRDQYELLCLNNSRAPVDAFKECHLAQVPSHAVVARSVDGKEDLIWKLLSKAQEKFGKNKSRSFQLFGSPPGQRDLLFKDSALGFLRIPSKVDSALYLGSRYLTTLKNLRETAEEVKARYTRVVWCAVGPEEQKKCQQWSQQSGQNVTCATASTTDDCIVLVLKGEADALNLDGGYIYTAGKCGLVPVLAENRKSSKHSSLDCVLRPTEGYLAVAVVKKANEGLTWNSLKDKKSCHTAVDRTAGWNIPMGLIVNQTGSCAFDEFFSQSCAPGADPKSRLCALCAGDDQGLDKCVPNSKEKYYGYTGAFRCLAEDVGDVAFVKNDTVWENTNGESTADWAKNLNREDFRLLCLDGTRKPVTEAQSCHLAVAPNHAVVSRSDRAAHVKQVLLHQQALFGKNGKNCPDKFCLFKSETKNLLFNDNTECLAKLGGRPTYEEYLGTEYVTAIANLKKCSTSPLLEACAFLTR
modifications: iron-free apo form
B2: hololactoferrin: iron-saturated hololactoferrin (Sigma-Aldrich; L4765) (protein, UniProt P24627 20-708, looked up)
Lactotransferrin: B1 Lactotransferrin
modifications: iron-saturated
B3: Human Lactoferrin: native human lactoferrin (Creative BioMart; LFT-8196H) (protein, UniProt P02788 20-710, looked up)
Lactotransferrin: GRRRSVQWCAVSQPEATKCFQWQRNMRKVRGPPVSCIKRDSPIQCIQAIAENRADAVTLDGGFIYEAGLAPYKLRPVAAEVYGTERQPRTHYYAVAVVKKGGSFQLNELQGLKSCHTGLRRTAGWNVPIGTLRPFLNWTGPPEPIEAAVARFFSASCVPGADKGQFPNLCRLCAGTGENKCAFSSQEPYFSYSGAFKCLRDGAGDVAFIRESTVFEDLSDEAERDEYELLCPDNTRKPVDKFKDCHLARVPSHAVVARSVNGKEDAIWNLLRQAQEKFGKDKSPKFQLFGSPSGQKDLLFKDSAIGFSRVPPRIDSGLYLGSGYFTAIQNLRKSEEEVAARRARVVWCAVGEQELRKCNQWSGLSEGSVTCSSASTTEDCIALVLKGEADAMSLDGGYVYTAGKCGLVPVLAENYKSQQSSDPDPNCVDRPVEGYLAVAVVRRSDTSLTWNSVKGKKSCHTAVDRTAGWNIPMGLLFNQTGSCKFDEYFSQSCAPGSDPRSNLCALCIGDEQGENKCVPNSNERYYGYTGAFRCLAENAGDVAFVKDVTVLQNTDGNNNEAWAKDLKLADFALLCLDGKRKPVTEARSCHLAMAPNHAVVSRMDKVERLKQVLLHQQAKFGRNGSDCPDKFCLFQSETKNLLFNDNTECLARLHGKTTYEKYLGPQYVAGITNLKKCSTSPLLEACEFLRK

Columns and labels:
SARS-CoV-2 [1] = test: microbe, parasite or virus in culture; format: cell-based
SARS-CoV-2 [2] = test: Hit validation across cell systems; format: cell-based; details: Huh7, LNCaP, Caco-2, Vero E6, iAEC2
SARS-CoV-2 [3] = format: cell-based
SARS-CoV-2 [4] = format: cell-based; remark: listed apart in the source
[5] = test system: IFNβ and interferon-stimulated gene transcripts; format: cell-based, human; details: virus-infected Huh7, MOI 0.2, 48 h, 6250 nM
SARS-CoV-2 [6] = format: cell-based; remark: listed apart in the source

Molecule | IC50 (SARS-CoV-2 [1]) [nM] | efficacy across all tested cell systems (SARS-CoV-2 [2]) | viral replication (viral RNA by RT-qPCR) (SARS-CoV-2 [3]) | antiviral activity through a range of MOIs (SARS-CoV-2 [4]) | antiviral activity when added after infection (SARS-CoV-2 [4]) | IFNβ and interferon-stimulated gene transcripts [5] | antiviral activity at high MOI (SARS-CoV-2 [6]) | antiviral activity against SARS-CoV-2 in iAECs (SARS-CoV-2 [6]; iAEC2) | antiviral activity (iron chelation control) (SARS-CoV-2 [4]; Huh7, 6,250 nM)
B1 | 440 | maintained efficacy across all tested cell systems | dose-dependent inhibition of viral replication | retained antiviral activity | maintained antiviral activity | up-regulation | retained antiviral activity | dose-responsive antiviral activity | 
B2 |  |  |  |  |  |  |  |  | retained activity
B3 |  |  |  |  |  |  | retained antiviral activity |  | 
